As a reminder, the Kd is the concentration at which binding is half-saturated. Usually koff stands for a measure of how fast the partners let go of each other. For orientation: kon means the rate constant with which the complex forms.

The source of these data is publication PMC6456722, “Internal cleavage and synergy with twisted gastrulation enhance BMP inhibition by BMPER” (Matrix Biology, 2019).

To fix the notation:
B3: full-length BMP-binding endothelial cell precursor-derived regulator (FL-BMPER) (natural protein)
chain: not shown
modifications: N-glycosylated (five predicted N-glycosylation sites)
notes: BMPER, human, full length, based on NCBI NM_133468.4; five vWFC domains, one vWFD domain, one TIL domain; His tag is thrombin cleavable; The protein is internally cleaved at the G368DPH371 site; the two fragments stay joined by the disulphide C364-C497; also called full length BMPER; Crossveinless-2 (CV2) in other species

In series [1] the target is T1, N-BMPER (N-terminal five vWFC domains of human BMPER) (human, UniProt Q8N8U9 40-358, N-glycosylated (four predicted sites in the vWFC domains)).
T1 construct: BMPER, human, the N-terminal five vWFC domains (vWFC1-5), based on NCBI NM_133468.4; His tag is thrombin cleavable; also called C-terminally truncated N-BMPER
T1 sequence (Q8N8U9 40-358): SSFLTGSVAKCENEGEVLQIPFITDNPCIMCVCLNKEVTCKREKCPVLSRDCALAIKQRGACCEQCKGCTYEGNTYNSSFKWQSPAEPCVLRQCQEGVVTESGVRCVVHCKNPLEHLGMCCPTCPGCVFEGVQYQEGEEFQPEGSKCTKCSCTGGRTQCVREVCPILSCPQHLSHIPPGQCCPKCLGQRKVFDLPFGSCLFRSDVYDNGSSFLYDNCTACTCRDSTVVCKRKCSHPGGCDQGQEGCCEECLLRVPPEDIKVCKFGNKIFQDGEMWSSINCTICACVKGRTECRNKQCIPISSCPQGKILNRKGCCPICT
In words: SPR; ProteOn XPR36; Tsg immobilised on a GLC chip by amine coupling; FL-BMPER (0-150 nM) or N-BMPER (0-50 nM) as analytes; 10 mM phosphate pH 7.4, 137 mM NaCl, 2.7 mM KCl, 0.005% Tween-20, 25 °C; KD of FL-BMPER by equilibrium analysis, of N-BMPER by Langmuir 1:1 model. The conditions noted are these: both partners purified. A general note: In SPR one partner is held on a chip, and binding of the other changes the refractive index at the surface.

In series [2] the target is B3. The series is described as above. Conditions: both partners purified.
The target in series [3] is T1, N-BMPER (N-terminal five vWFC domains …). In words: SPR; chordin vWFC2-3 immobilised, N-BMPER in solution phase; Langmuir 1:1 model. The conditions noted are these: both partners purified.
Series [4] concerns the molecule itself. In words: AUC; sedimentation velocity, 230 nm, 45000 rpm, 20 °C.

B1: twisted gastrulation (Tsg) (natural protein, human, UniProt Q9GZX9 26-223, looked up)
chain: CNKALCASDVSKCLIQELCQCRPGEGNCSCCKECMLCLGALWDECCDCVGMCNPRNYSDTPPTSKSTVEELHEPIPSLFRALTEGDTQLNWNIVSFPVAEELSHHENLVSFLETVNQPHHQNVSVPSNNVHAPYSSDKEHMCTVVYFDDCMSIHQCKISCESMGASKYRWFHNACCECIGPECIDYGSKTVKCMNCMF
notes: twisted gastrulation (Tsg)
As to B1, in series [1], the Kd is 0.55 nM, the koff is 0.000228 s⁻¹ and the association rate constant (kon) is 415000 M⁻¹ s⁻¹. Moreover, in series [2], the equilibrium dissociation constant (Kd) is 68.4 nM, the koff was 0.000203 s⁻¹ and the kon is 2970 M⁻¹ s⁻¹.

B2: chordin vWFC2-3 (domain or fragment, UniProt Q9H2X0 703-850, looked up)
chain: NTCFFEGQQRPHGARWAPNYDPLCSLCTCQRRTVICDPVVCPPPSCPHPVQAPDQCCPVCPEKQDVRDLPGLPRSRDPGEGCYFDGDRSWRAAGTRWHPVVPPFGLIKCAVCTCKGGTGEVHCEKVQCPRLACAQPVRVNPTDCCKQC
notes: chordin, domains vWFC2-3
With B2, in series [3], the Kd is 0.2 nM, the koff was 8.22e-05 s⁻¹ and the kon is 404000 M⁻¹ s⁻¹.
For B3, the binding result in series [4] is given as “binds”.
